Data from patent US9618524B2, “Method, composition, isolation and identification of a plaque particle and related biomarker” (Plaxgen Inc., priority 2012, dated 2017).

Assays:
Test in all cases: Mass spectroscopy proteomics, semi-quantitative binding affinity of serum proteins (plaqueproteome, Table 2)
Conditions in all cases: higher number = stronger affinity
[1] = system: Low density cholesterol (Chl small) plaque particles; set-up: species or system human
How it was run: (§1)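 Serum or plasma from atherosclerotic subjects, as 50% serum, was incubated with 30 μg cholesterol aggregates for 1 h at 37 °C. High- and low-density particles were then flow-sorted, trypsin-digested and analysed by MS/MS. Proteins were identified by Sequest search against human UniProt and validated with Protein Prophet.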

[2] = system: High Density cholesterol (Chl Large) plaque particles; set-up: species or system human
How it was run: as §1

Tau plaque particles = system: Tau plaque particles; set-up: species or system human
How it was run: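 Serum or plasma proteins captured on Thioflavin S-labelled Tau plaque particles (Tau-74, Tau-275 oligomers preformed in PBS at 37° C for 2 h; 1 h co-incubation at 37° C) were isolated by FACS sorting, then tryptically digested and identified by MS/MS (Sequest, human UniProt, strict trypsin).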

[3] = target: T1, Abeta-42 plaque particles (Homo sapiens, UniProt P05067)
T1 construct: Abeta 1-42
How it was run: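 AD patient serum or plasma (50% in PBS) was incubated with Abeta-42 aggregates (30 μg) for 1 h at 37 °C, then stained with Thioflavin S for 30 min. Labeled particles were FACS-sorted, trypsin/Lys-C digested overnight and analyzed by MS/MS. Sequest searched human UniProt; Scaffold/Protein Prophet validated the identifications.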

[4] = target: T2, alpha-synuclein plaque particles (Homo sapiens, UniProt P37840)
T2 construct: 140 amino acids polypeptide
How it was run: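 AD-subject plasma or serum (800 μL of 50%) mixed with 30 μg preformed alpha-synuclein aggregates for 1 h at 37 °C; Thioflavin S-positive particles isolated by flow sorting. After reduction, acrylamide alkylation and overnight tryptic digestion, serum proteins identified by MS/MS with Sequest and Scaffold.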

| Molecule | Semi-quantitative analysis of proteins binding to different plaque particles: Chl small [1] | Semi-quantitative analysis of proteins binding to different plaque particles: Chl Large [2] | Semi-quantitative analysis of proteins binding to different plaque particles: Tau (Tau plaque particles) | Semi-quantitative analysis of proteins binding to different plaque particles: Abeta-42 [3] | Semi-quantitative analysis of proteins binding to different plaque particles: Synuclein [4] |
| --- | --- | --- | --- | --- | --- |
| Cluster of Keratin, type II cytoskeletal 2 epidermal (protein, UniProt P35908 1-639, looked up) Keratin, type II cytoskeletal …: MSCQISCKSRGRGGGGGGFRGFSSGSAVVSGGSRRSTSSFSCLSRHGGGGGGFGGGGFGSRSLVGLGGTKSISISVAGGGGGFGAAGGFGGRGGGFGGGSSFGGGSGFSGGGFGGGGFGGGRFGGFGGPGGVGGLGGPGGFGPGGYPGGIHEVSVNQSLLQPLNVKVDPEIQNVKAQEREQIKTLNNKFASFIDKVRFLEQQNQVLQTKWELLQQMNVGTRPINLEPIFQGYIDSLKRYLDGLTAERTSQNSELNNMQDLVEDYKKKYEDEINKRTAAENDFVTLKKDVDNAYMIKVELQSKVDLLNQEIEFLKVLYDAEISQIHQSVTDTNVILSMDNSRNLDLDSIIAEVKAQYEEIAQRSKEEAEALYHSKYEELQVTVGRHGDSLKEIKIEISELNRVIQRLQGEIAHVKKQCKNVQDAIADAEQRGEHALKDARNKLNDLEEALQQAKEDLARLLRDYQELMNVKLALDVEIATYRKLLEGEECRMSGDLSSNVTVSVTSSTISSNVASKAAFGGSGGRGSSSGGGYSSGSSSYGSGGRQSGSRGGSGGGGSISGGGYGSGGGSGGRYGSGGGSKGGSISGGGYGSGGGKHSSGGGSRGGSSSGGGYGSGGGGSSSVKGSSGEAFGSSVTFSFR | 20 | 14 | 24 | 171 | 3 |
| Isoform 2 of RNA-binding protein 39 (protein) ADDIDIEAMLEAPYKKDENKLSSANGHEERSKKRKKSKSRSRSHERKRSKSKERKRSRDRERKKSKSRERKRSRSKERRRSRSRSRDRRFRGRYRSPYSGPKFNSAIRGKIGLPHSIKLSRRRSRSKSPFRKDKSPVREPIDNLTPEERDARTVFCMQLAARIRPRDLEEFFSTVGKVRDVRMISDRNSRRSKGIAYVEFVDVSSVPLAIGLTGQRVLGVPIIVQASQAEKNRAAAMANNLQKGSAGPMRLYVGSLHFNITEDMLRGIFEPFGRIESIQLMMDSETGRSKGYGFITFSDSECAKKALEQLNGFELAGRPMKVGHVTERTDASSASSFLDSDELERTGIDLGTTGRLQLMARLAEGTGLQIPPAAQQALQMSGSLAFGAVADLQTRLSQQTEASALAAAASVQPLATQCFQLSNMFNPQTEEEVGWDTEIKDDVIEECNKHGGVIHIYVDKNSAQGNVYVKCPSIAAAIAAVNALHGRWFAGKMITAAYVPLPTYHNLFPDSMTATQLLVPSRR | 0 | 0 | 0 | 2 | 0 |
| Serpin B3 (protein) MNSLSEANTKFMFDLFQQFRKSKENNIFYSPISITSALGMVLLGAKDNTAQQIKKVLHFDQVTENTTGKAATYHVDRSGNVHHQFQKLLTEFNKSTDAYELKIANKLFGEKTYLFLQEYLDAIKKFYQTSVESVDFANAPEESRKKINSWVESQTNEKIKNLIPEGNIGSNTTLVLVNAIYFKGQWEKKFNKEDTKEEKFWPNKNTYKSIQMMRQYTSFHFASLEDVQAKVLEIPYKGKDLSMIVLLPNEIDGLQKLEEKLTAEKLMEWTSLQNMRETRVDLHLPRFKVEESYDLKDTLRTMGMVDIFNGDADLSGMTGSRGLVLSGVLHKAFVEVTEEGAEAAAATAVVGFGSSPTSTNEEFHCNHPFLFFIRQNKTNSILFYGRFSSP | 0 | 0 | 0 | 2 | 0 |
| Immunoglobulin lambda-like polypeptide 1 (protein) LLRPTAASQSRALGPGAPGGSSRSSLRSRWGRFLLQRGSWTGPRCWPRGFQSKHNSVTHVFGSGTQLTVLSQPKATPSVTLFPPSSEELQANKATLVCLMNDFYPGILTVTWKADGTPITQGVEMTTPSKQSNNKYAASSYLSLTPEQWRSRRSYSCQVMHEGSTVEKTVAPAECS | 1 | 0 | 0 | 0 | 0 |
| Apolipoprotein F (protein) SLPTEDCENEKEQAVHNVVQLLPGVGTFYNLGTALYYATQNCLGKARERGRDGAIDLGYDLLMTMAGMSGGPMGLAISAALKPALRSGVQQLIQYYQDQKDANISQPETTKEGLRAISDVSDLEETTTLASFISEVVSSAPYWGWAIIKSYDLDPGAGSLEI | 1 | 0 | 1 | 0 | 2 |
| Thioredoxin (protein) VKQIESKTAFQEALDAAGDKLVVVDFSATWCGPCKMIKPFFHSLSEKYSNVIFLEVDVDDCQDVASECEVKCMPTFQFFKKGQKVGEFSGANKEKLEATINELV | 0 | 0 | 0 | 2 | 0 |
| Heterogeneous nuclear ribonucleoprotein R (protein) ANQVNGNAVQLKEEEEPMDTSSVTHTEHYKTLIEAGLPQKVAERLDEIFQTGLVAYVDLDERAIDALREFNEEGALSVLQQFKESDLSHVQNKSAFLCGVMKTYRQREKQGSKVQESTKGPDEAKIKALLERTGYTLDVTTGQRKYGGPPPDSVYSGVQPGIGTEVFVGKIPRDLYEDELVPLFEKAGPIWDLRLMMDPLSGQNRGYAFITFCGKEAAQEAVKLCDSYEIRPGKHLGVCISVANNRLFVGSIPKNKTKENILEEFSKVTEGLVDVILYHQPDDKKKNRGFCFLEYEDHKSAAQARRRLMSGKVKVWGNVVTVEWADPVEEPDPEVMAKVKVLFVRNLATTVTEEILEKSFSEFGKLERVKKLKDYAFVHFEDRGAAVKAMDEMNGKEIEGEEIEIVLAKPPDKKRKERQAARQASRSTAYEDYYYHPPPRMPPPIRGRGRGGGRGGYGYPPDYYGYEDYYDDYYGYDYHDYRGGYEDPYYGYDDGYAVRGRGGGRGGRGAPPPPRGRGAPPPRGRAGYSQRGAPLGPPRGSRGGRGGPAQQQRGRGSRGSRGNRGGNVGGKRKADGYNQPDSKRRQTNNQQNWGSQPIAQQPLQQGGDYSGNYGYNNDNQEFYQDTYGQQWK | 0 | 0 | 0 | 2 | 0 |
| Isoform 2 of C4b-binding protein beta chain (protein) ASDEHCPELPPVDNSIFVAKEVEGQILGTYVCIKGYHLVGKKTLFCNASKEWDNTTTECRLGHCPDPVLVNGEFSSSGPVNVSDKITFMCNDHYILKGSNRSQCLEDHTWAPPFPICKSRDCDPPGNPVHGYFEGNNFTLGSTISYYCEDRYYLVGVQEQQCVDGEWSSALPVCKLIQEAPKPECEKALLAFQESKNLCEAMENFMQQLKESGMTMEELKYSLELKKAELKAKLL | 1 | 0 | 0 | 0 | 0 |
